Experimental data reported in US20260265396A1 (BIOARCTIC, published 2026).
One block for each binder: values may come before it.

Tests used:
[1] = target: T1, chimeric TfR1 consisting of human apical domain grafted on mouse TfR1 ectodomain (SEQ ID NO:57) (human/mouse chimera); experiment: indirect ELISA, plate coated with 1 ug/ml h/m apical domain chimera (axis labelled TfR (ng/ml)) [C]
T1 construct: His-tagged ELISA coat; also called h/m apical domain chimera
T1 chain: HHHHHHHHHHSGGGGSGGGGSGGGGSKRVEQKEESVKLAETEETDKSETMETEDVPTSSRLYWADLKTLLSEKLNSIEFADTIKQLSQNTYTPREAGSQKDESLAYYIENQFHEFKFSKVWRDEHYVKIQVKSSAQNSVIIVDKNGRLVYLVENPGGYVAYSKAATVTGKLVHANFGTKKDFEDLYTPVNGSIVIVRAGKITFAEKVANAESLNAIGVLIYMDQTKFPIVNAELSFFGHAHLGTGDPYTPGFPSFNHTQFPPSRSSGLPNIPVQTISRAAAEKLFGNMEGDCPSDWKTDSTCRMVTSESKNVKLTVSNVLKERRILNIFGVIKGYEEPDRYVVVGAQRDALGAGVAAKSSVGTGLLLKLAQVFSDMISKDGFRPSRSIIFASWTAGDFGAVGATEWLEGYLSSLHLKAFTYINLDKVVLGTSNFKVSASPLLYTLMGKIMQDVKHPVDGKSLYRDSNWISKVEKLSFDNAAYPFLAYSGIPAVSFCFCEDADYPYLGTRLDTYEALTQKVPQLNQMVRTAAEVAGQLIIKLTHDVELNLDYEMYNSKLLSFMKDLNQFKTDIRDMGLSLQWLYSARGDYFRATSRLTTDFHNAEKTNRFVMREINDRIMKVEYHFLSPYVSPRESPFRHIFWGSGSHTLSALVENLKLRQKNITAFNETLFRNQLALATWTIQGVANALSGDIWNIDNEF
Method: The coated plates were then blocked. Dilution series of mouse IgG of the analyzed antibodies were prepared in PBS and incubated on the ELISA plates. Unbound antibodies were then washed off before incubating wells with a HRP-conjugated secondary, anti-mouse-IgG for 1 h. Plates were then washed again before addition of HRP substrate TMB for development and detection of antibody binding to the wells. TMB development was stopped by adding 0.5 M H₂SO₄ to the wells and ELISA responses measured as the OD at 450 nm in an ELISA plate reader.

[2] = target: T2, human TfR1, recombinant, construct not stated for the experiment (human, UniProt P02786 89-760, limits assumed); experiment: indirect ELISA, plate coated with 1 ug/ml recombinant hTfR1 ectodomain, Fab 1:3 dilution series, anti-human IgG F(ab')2-HRP [lower panel hTfR1]
T2 construct: Biotinylated in the binning and scFv-Fc BLI experiments; also called hTfR1; biotinylated hTfR1
T2 sequence (P02786 89-760 limits assumed): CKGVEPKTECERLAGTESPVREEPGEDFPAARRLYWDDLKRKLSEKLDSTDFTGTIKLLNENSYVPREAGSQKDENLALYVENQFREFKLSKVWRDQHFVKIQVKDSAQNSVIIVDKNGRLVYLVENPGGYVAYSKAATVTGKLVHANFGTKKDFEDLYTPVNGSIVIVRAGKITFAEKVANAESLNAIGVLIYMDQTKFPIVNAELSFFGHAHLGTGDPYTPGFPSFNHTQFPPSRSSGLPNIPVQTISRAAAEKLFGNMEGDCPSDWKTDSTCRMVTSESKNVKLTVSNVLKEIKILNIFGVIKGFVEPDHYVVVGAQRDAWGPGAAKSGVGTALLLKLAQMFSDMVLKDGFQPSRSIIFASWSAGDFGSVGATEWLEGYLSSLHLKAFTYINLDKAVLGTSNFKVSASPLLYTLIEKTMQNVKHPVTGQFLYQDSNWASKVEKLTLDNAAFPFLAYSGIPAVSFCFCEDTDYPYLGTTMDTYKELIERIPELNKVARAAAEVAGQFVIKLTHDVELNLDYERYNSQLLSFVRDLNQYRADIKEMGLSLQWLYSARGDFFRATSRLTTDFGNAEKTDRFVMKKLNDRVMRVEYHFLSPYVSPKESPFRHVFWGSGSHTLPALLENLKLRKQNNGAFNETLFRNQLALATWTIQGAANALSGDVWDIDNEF

binding result [1]: no binding (tested: about 650 ng/ml)
B1: mouse monoclonal antibody 26D3 (antibody, mouse IgG2a, V domains shown)
VH: EVQLQQFGVELVKPGASVKISCKASGYIFTDYNMDWVKQSHGKSLEWIGDINPDYDTTSYNEKFKGKATLTVDKSSSTAYMELRSLTSEDTAVYYCARGGYSGSSYYHPMDYWGQGTSVTVSS
VL: DIVMSQSPSSLAVSVGEKITMSCKSSQSLLYSTNQKNYLAWYQQKPGQSPELLIYWASTRESGVPDRFTGSGSGTDFTLTISNVRAEDLAVYYCQQYFIYPRTFGGGTKLEIK

EC50 (read off the curve) [2]: ~0.5 µM
B2: h26D3 Fab (humanized 26D3) (Fab, V domains shown)
VH: EVQLVQSGAEVKKPGSSVKVSCKASGYIFTDYNMDWVRQAPGQGLEWIGDINPDYDTTSYNEKFKGRATLTVDKSTSTAYMELSSLRSEDTAVYYCARGGYSGSSYYHPMDYWGQGTLVTVSS
VL: DIQMTQSPSSVSASVGDRVTITCKSSQSLLYSTNQKNYLAWYQQKPGKAPKLLIYWASTRESGVPSRFSGSGSGTDFTLTISSLQPEDFATYYCQQYFIYPRTFGQGTKVEIK
notes: His-tagged Fab from ExpiCHO cells
